Positions count from the first letter of the chain named.
B1: GLS3000 T31P (antibody, name in Kabat numbering, V domains shown)
VH: QVQLVESGGGVVQPGRSLRLSCAASGFTFSNAWMHWVRQAPGKGLEWVAQIKAKSNNYATYYAESVKGRFTISRDDSKNSLYLQMNSLKTEDTAVYYCRYVHYGAYYGVDAWGQGTTVTVSS
VL: DIVMTQSPLSLPVTPGEPASISCRSSQSLVHSNRNPYLHWYQQKPGQAPRLLIYKVSNRFSGVPDRFSGSGSGTDFTLKISRVEAEDVGVYYCGQGTQVPYTFGQGTKLEIK
notes: one-arm format as m2
B2: GLS3000 V27cD (antibody, name in Kabat numbering, V domains shown)
VH: B1 VH
VL: B1 VL with V30D, P36T
notes: one-arm format as m2
B3: GLS3000 V51P (antibody, name in Kabat numbering, V domains shown)
VH: B1 VH
VL: B1 VL with P36T, V56P
notes: one-arm format as m2
B4: GLS3000 V27cI (antibody, name in Kabat numbering, V domains shown)
VH: B1 VH
VL: B1 VL with V30I, P36T
notes: one-arm format as m2
B5: GLS3000 Y32D (antibody, name in Kabat numbering, V domains shown)
VH: B1 VH
VL: B1 VL with P36T, Y37D
notes: one-arm format as m2
B6: GLS3000 V94S (antibody, name in Kabat numbering, V domains shown)
VH: B1 VH
VL: B1 VL with P36T, V99S
notes: one-arm format as m2
B7: GLS3000 V51I (antibody, name in Kabat numbering, V domains shown)
VH: B1 VH
VL: B1 VL with P36T, V56I
notes: one-arm format as m2
B8: GLS3000 V51G (antibody, name in Kabat numbering, V domains shown)
VH: B1 VH
VL: B1 VL with P36T, V56G
notes: one-arm format as m2
B9: GLS3000 T92E (antibody, name in Kabat numbering, V domains shown)
VH: B1 VH
VL: B1 VL with P36T, T97E
notes: one-arm format as m2
B10: GLS3000 V94H (antibody, name in Kabat numbering, V domains shown)
VH: B1 VH
VL: B1 VL with P36T, V99H
notes: one-arm format as m2
B11: GLS3000 T92D (antibody, name in Kabat numbering, V domains shown)
VH: B1 VH
VL: B1 VL with P36T, T97D
notes: one-arm format as m2
B12: GLS3000 V94N (antibody, name in Kabat numbering, V domains shown)
VH: B1 VH
VL: B1 VL with P36T, V99N
notes: one-arm format as m2
B13: GLS3000 V27cE (antibody, name in Kabat numbering, V domains shown)
VH: B1 VH
VL: B1 VL with V30E, P36T
notes: one-arm format as m2
B14: GLS3000 V27cS (antibody, name in Kabat numbering, V domains shown)
VH: B1 VH
VL: B1 VL with V30S, P36T
notes: one-arm format as m2
B15: GLS3000 V51E (antibody, name in Kabat numbering, V domains shown)
VH: B1 VH
VL: B1 VL with P36T, V56E
notes: one-arm format as m2
B16: GLS3000 Y32F (antibody, name in Kabat numbering, V domains shown)
VH: B1 VH
VL: B1 VL with P36T, Y37F
notes: one-arm format as m2
B17: GLS3000 V94R (antibody, name in Kabat numbering, V domains shown)
VH: B1 VH
VL: B1 VL with P36T, V99R
notes: one-arm format as m2
B18: GLS3000 T92L (antibody, name in Kabat numbering, V domains shown)
VH: B1 VH
VL: B1 VL with P36T, T97L
notes: one-arm format as m2
B19: GLS3000 V94Y (antibody, name in Kabat numbering, V domains shown)
VH: B1 VH
VL: B1 VL with P36T, V99Y
notes: one-arm format as m2
B20: GLS3000 V27cP (antibody, name in Kabat numbering, V domains shown)
VH: B1 VH
VL: B1 VL with V30P, P36T
notes: one-arm format as m2
B21: GLS3000 V94L (antibody, name in Kabat numbering, V domains shown)
VH: B1 VH
VL: B1 VL with P36T, V99L
notes: one-arm format as m2
B22: GLS3000 V94D (antibody, name in Kabat numbering, V domains shown)
VH: B1 VH
VL: B1 VL with P36T, V99D
notes: one-arm format as m2
B23: GLS3000 V94T (antibody, name in Kabat numbering, V domains shown)
VH: B1 VH
VL: B1 VL with P36T, V99T
notes: one-arm format as m2
B24: GLS3000 V94F (antibody, name in Kabat numbering, V domains shown)
VH: B1 VH
VL: B1 VL with P36T, V99F
notes: one-arm format as m2
B25: GLS3000 V94W (antibody, name in Kabat numbering, V domains shown)
VH: B1 VH
VL: B1 VL with P36T, V99W
notes: one-arm format as m2
B26: GLS3000 V94E (antibody, name in Kabat numbering, V domains shown)
VH: B1 VH
VL: B1 VL with P36T, V99E
notes: one-arm format as m2
B27: GLS3000 T92I (antibody, name in Kabat numbering, V domains shown)
VH: B1 VH
VL: B1 VL with P36T, T97I
notes: one-arm format as m2
B28: GLS3000 V94G (antibody, name in Kabat numbering, V domains shown)
VH: B1 VH
VL: B1 VL with P36T, V99G
notes: one-arm format as m2
B29: GLS3000 V94I (antibody, name in Kabat numbering, V domains shown)
VH: B1 VH
VL: B1 VL with P36T, V99I
notes: one-arm format as m2
B30: GLS3000 T97P (antibody, name in Kabat numbering, V domains shown)
VH: B1 VH
VL: B1 VL with P36T, T102P
notes: one-arm format as m2
B31: GLS3000 V27cL (antibody, name in Kabat numbering, V domains shown)
VH: B1 VH
VL: B1 VL with V30L, P36T
notes: one-arm format as m2
B32: GLS3000 T92S (antibody, name in Kabat numbering, V domains shown)
VH: B1 VH
VL: B1 VL with P36T, T97S
notes: one-arm format as m2
B33: GLS3000 V94M (antibody, name in Kabat numbering, V domains shown)
VH: B1 VH
VL: B1 VL with P36T, V99M
notes: one-arm format as m2
B34: GLS3000 V51D (antibody, name in Kabat numbering, V domains shown)
VH: B1 VH
VL: B1 VL with P36T, V56D
notes: one-arm format as m2
B35: GLS3000 V94A (antibody, name in Kabat numbering, V domains shown)
VH: B1 VH
VL: B1 VL with P36T, V99A
notes: one-arm format as m2
B36: GLS3000 Y32A (antibody, name in Kabat numbering, V domains shown)
VH: B1 VH
VL: B1 VL with P36T, Y37A
notes: one-arm format as m2
B37: GLS3000 V27cY (antibody, name in Kabat numbering, V domains shown)
VH: B1 VH
VL: B1 VL with V30Y, P36T
notes: one-arm format as m2
B38: GLS3000 T92Y (antibody, name in Kabat numbering, V domains shown)
VH: B1 VH
VL: B1 VL with P36T, T97Y
notes: one-arm format as m2
B39: GLS3000 V94K (antibody, name in Kabat numbering, V domains shown)
VH: B1 VH
VL: B1 VL with P36T, V99K
notes: one-arm format as m2
B40: GLS3000 V94Q (antibody, name in Kabat numbering, V domains shown)
VH: B1 VH
VL: B1 VL with P36T, V99Q
notes: one-arm format as m2
B41: GLS3000 T92P (antibody, name in Kabat numbering, V domains shown)
VH: B1 VH
VL: B1 VL with P36T, T97P
notes: one-arm format as m2
B42: GLS3000 T92A (antibody, name in Kabat numbering, V domains shown)
VH: B1 VH
VL: B1 VL with P36T, T97A
notes: one-arm format as m2
B43: GLS3000 V94P (antibody, name in Kabat numbering, V domains shown)
VH: B1 VH
VL: B1 VL with P36T, V99P
notes: one-arm format as m2

Each binder was assayed against CD3ε homodimer protein (human, UniProt P07766 23-126, limits assumed) (assay: SPR, immobilized CD3ε homodimer;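 further: biacore T200 surface plasmon resonance at 25 °C, antibody variants flowed as analytes over amine-coupled CD3ε homodimer on a CM4 chip, variant binding amount divided by that of GLS3000 antibody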).
Sequence of CD3ε homodimer protein (P07766 23-126 limits assumed): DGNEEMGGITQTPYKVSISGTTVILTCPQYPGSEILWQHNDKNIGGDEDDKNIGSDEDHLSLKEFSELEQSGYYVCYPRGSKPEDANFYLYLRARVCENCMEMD

Binder	ratio of amounts bound (vs GLS3000)
B1	0.31
B2	0.32
B3	0.32
B4	0.96
B5	0.23
B6	0.93
B7	0.81
B8	0.84
B9	0.17
B10	0.78
B11	0.18
B12	1.05
B13	0.61
B14	0.51
B15	0.64
B16	0.29
B17	0.66
B18	0.42
B19	0.63
B20	0.3
B21	0.44
B22	0.89

Binder	ratio of amounts bound (vs GLS3000)
B23	0.93
B24	0.71
B25	0.58
B26	0.5
B27	0.34
B28	0.48
B29	0.66
B30	0.31
B31	0.84
B32	0.96
B33	0.44
B34	0.33
B35	1.05
B36	0.24
B37	0.77
B38	0.33
B39	0.57
B40	0.76
B41	0.26
B42	0.63
B43	1.26
